Test in all cases: multimer staining
In experiment [1] the target is T1, cyclin A1 (CCNA1), isoform 3 (SEQ ID NO:4) peptide on HLA-A*02:01 (human).
T1 peptide: YSLSEIVPCL

Experiment [2] addresses T2, cyclin A1 (CCNA1), isoform 3 (SEQ ID NO:4) peptide on HLA-A*02:01 (human).
T2 peptide: SLIAAAAFCLA

The target of experiment [3] is T3, cyclin A1 (CCNA1), isoform 3 (SEQ ID NO:4) peptide on HLA-A*02:01 (human).
T3 peptide: FLDRFLSCM

Data on four molecules can be found in patent US20200405762A1 (published 2020).

B1: TCR #8 (TCR, V domains shown)
Valpha: AQKVTQAQTEISVVEKEDVTLDCVYETRDTTYYLFWYKQPPSGELVFLIRRNSFDEQNEISGRYSWNFQKSTSSFNFTITASQVVDSAVYFCALSELASGGSYIPTFGRGTSLIVHP
Vbeta: DAGVTQSPTHLIKTRGQQVTLRCSPKSGHDTVSWYQQALGQGPQFIFQYYEEEERQRGNFPDRFSGHQFPNYSSELNVNALLLGDSALYLCASSFRLAGGPSTDTQYFGPGTRLTVL
In the case of B1, in experiment [1], the binding result is recorded as “recognises”.

B2: TCR #7 (TCR, V domains shown)
Valpha: ILNVEQSPQSLHVQEGDSTNFTCSFPSSNFYALHWYRWETAKSPEALFVMTLNGDEKKKGRISATLNTKEGYSYLYIKGSQPEDSATYLCAYLGAGNQFYFGTGTSLTVIP
Vbeta: DGGITQSPKYLFRKEGQNVTLSCEQNLNHDAMYWYRQDPGQGLRLIYYSQIVNDFQKGDIAEGYSVSREKKESFPLTVTSAQKNPTAFYLCASSLNRGRYGYTFGSGTRLTVV
Consider B2, for which the binding result in experiment [2] is “recognises”.

B3: TCR #4 (TCR, V domains shown)
Valpha: SQQGEEDPQALSIQEGENATMNCSYKTSINNLQWYRQNSGRGLVHLILIRSNEREKHSGRLRVTLDTSKKSSSLLITASRAADTASYFCATDAWESNFGNEKLTFGTGTRLTIIP
Vbeta: GAGVSQSPSNKVTEKGKDVELRCDPISGHTALYWYRQSLGQGLEFLIYFQGNSAPDKSGLPSDRFSAERTGGSVSTLTIQRTQQEDSAVYLCASSLVVGSYEQYFGPGTRLTVT
Take B3: the binding result in experiment [3] is listed as “recognises”.

B4: TCR #3 (TCR, V domains shown)
Valpha: QKEVEQNSGPLSVPEGAIASLNCTYSDRGSQSFFWYRQYSGKSPELIMSIYSNGDKEDGRFTAQLNKASQYVSLLIRDSQPSDSATYLCAVDSGGYQKVTFGTGTKLQVIP
Vbeta: GAGVSQTPSNKVTEKGKYVELRCDPISGHTALYWYRQSLGQGPEFLIYFQGTGAADDSGLPNDRFFAVRPEGSVSTLKIQRTERGDSAVYLCASSLNMNTEAFFGQGTRLTVV
As for B4, in experiment [3], the binding result is given as “recognises”.
